Here are results for 4 molecules from US20250346878, “EDITING OF DOUBLE-STRANDED DNA WITH RELAXED PAM REQUIREMENT” (WUHAN UNIVERSITY, published 2025).

Where a chain is given by its changes, count along the chain named.

The target in data set [1] is T1, dAtCas9-D1089A (Alicyclobacillus tengchongensis, D8A,H617A,N640A,D1089A).
T1 chain: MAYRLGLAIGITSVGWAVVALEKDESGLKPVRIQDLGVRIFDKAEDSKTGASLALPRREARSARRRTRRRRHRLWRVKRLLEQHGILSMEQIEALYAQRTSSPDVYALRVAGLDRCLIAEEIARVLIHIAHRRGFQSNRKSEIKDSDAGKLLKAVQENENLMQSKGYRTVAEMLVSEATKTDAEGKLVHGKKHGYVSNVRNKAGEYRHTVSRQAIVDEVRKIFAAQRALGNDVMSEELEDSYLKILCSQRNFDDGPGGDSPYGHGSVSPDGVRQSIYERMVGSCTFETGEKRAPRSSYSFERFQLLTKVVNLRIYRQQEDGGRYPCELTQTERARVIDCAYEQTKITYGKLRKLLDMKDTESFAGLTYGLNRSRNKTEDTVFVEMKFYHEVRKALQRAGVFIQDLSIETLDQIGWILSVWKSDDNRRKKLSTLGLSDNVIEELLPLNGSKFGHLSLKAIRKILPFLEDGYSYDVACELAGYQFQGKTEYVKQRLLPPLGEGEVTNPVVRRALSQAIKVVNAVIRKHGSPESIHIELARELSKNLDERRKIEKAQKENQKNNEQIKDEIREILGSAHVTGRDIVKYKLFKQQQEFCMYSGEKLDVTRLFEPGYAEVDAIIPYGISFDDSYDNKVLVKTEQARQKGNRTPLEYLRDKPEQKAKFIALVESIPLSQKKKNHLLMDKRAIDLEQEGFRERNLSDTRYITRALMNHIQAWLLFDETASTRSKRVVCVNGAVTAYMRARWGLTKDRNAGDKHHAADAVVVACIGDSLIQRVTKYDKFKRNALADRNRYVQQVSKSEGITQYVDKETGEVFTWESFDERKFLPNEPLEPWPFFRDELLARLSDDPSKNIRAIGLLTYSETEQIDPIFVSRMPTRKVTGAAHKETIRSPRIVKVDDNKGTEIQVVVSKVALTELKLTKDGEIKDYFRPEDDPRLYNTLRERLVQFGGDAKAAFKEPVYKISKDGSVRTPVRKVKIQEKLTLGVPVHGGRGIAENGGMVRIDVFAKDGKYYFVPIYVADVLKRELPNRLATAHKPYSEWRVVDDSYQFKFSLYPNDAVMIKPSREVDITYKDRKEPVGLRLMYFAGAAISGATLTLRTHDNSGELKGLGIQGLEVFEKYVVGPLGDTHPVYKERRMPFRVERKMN
Description: EMSA; SD 15.39; PAM CTAA. The conditions noted are these: tags: 6xHis; label: 5' Cy5. The text has this: (§1) A. Schematic representation of AtCas9 domain structure showing the positions of PAM-interacting (PI) mutations. BH, arginine-rich bridge helix; REC, recognition lobe; L1, L1 linker; L2, L2 linker; WED, Wedge domain; TOPO, Topoisomerase-homology domain; CTD, C-terminal domain; HNH, HNH domain; RuvC, RuvC domain; D, Aspartic acid; I, Isoleucine; S, Serine; G, Glycine; A, Alanine. B. Negative supercoil and linearized DNA of different PAM were cleaved by WT AtCas9 and two PI mutants, m4 and m5. Each PAM variant has at least two distinct spacer sequences for cleavage assays. Use Image Lab software to analyzed the percentage of cutting products and take the average value of each PAM variant for graphing. m4, D1089A; m5, D1089A S1091A G1092A. C. Sequence logo for the AtCas9 PI domain mutant m4 (D1089A) PAM as determined by linearized PAM library substrates cleavage assay. D. EMSA assay were performed with 5′ cy5-labeled oligonucleotides carrying WT PAM (CTAA, left) or MUT PAM (TATA, right), and dAtCas9 or dAtCas9-D1089A RNP complex titrating from 1.2 nM to 2.4 μM. […] E. SpCas9 RNPs hardly bind to mut PAM (GTC) dsDNA compared with wt PAM (AGG) dsDNA. KD±SD for SpCas9 to WT PAM dsDNA, 300±10.57 nM; KD±SD for SpCas9 to MUT PAM dsDNA, ˜2.495e+18 nM.
(§2) dAtCas9 and sgRNA were mixed at 1:2 molar ratio in 1×buffer16. […]

The target in data set [2] is T2, dAtCas9 (Alicyclobacillus tengchongensis, D8A,H617A,N640A).
T2 chain: T1 chain with A1089D
Description: EMSA; SD 12.05; second measurement, PAM CTAA; guide 21a sgRNA-At. Conditions: tags: 6xHis; label: 5' Cy5.
Source text: as §1, §2

The target of data set [3] is T2, dAtCas9. The data set is described as follows: EMSA; SD 10.9; buffer16 with 10 mM Mg2+, 55C; PAM CTAA. Conditions: tags: 6xHis; label: 5' Cy5. As to the method: (§3) A. Schematic diagram of AtCas9 domain structure showing RuvC and HNH nuclease domain mutation site. BH, arginine-rich bridge helix; REC, recognition lobe; L1, linker 1; L2, linker 2; WED, Wedge domain; TOPO, Topoisomerase-homology domain; CTD, C-terminal domain; HNH, HNH domain; D, Aspartic acid; H, Histidine; N, Asparagine; A, Alanine. B. (left) Electrophoretic mobility shift assay (EMSA) were carried out by incubating AtCas9 RNP with 25 nM Cy5-labeled oligonucleotides (50 bp) in buffer16 without Mg²⁺. […] (right) Catalytically dead AtCas9 (dAtCas9, D8A H617A N640A) were used for EMSA assay in the presence of Mg²⁺ C. […] The bulge substrate details are illustrated in FIG. 10B. […] MUT PAM TATA and WT PAM CTAA was used. D. Higher binding affinity of AtCas9 RNPs towards negative supercoiled dsDNA than linear dsDNA. 1 nM cy5-labeled negative supercoil plasmid or NcoI-linearized plasmid containing PAM (CTAA) or mutant PAM (TGAC) motif were incubated with dAtCas9 RNP complex at indicated dosage. ProK, Proteinase K.
(§4) dAtCas9 and sgRNA were mixed at 1:2 molar ratio in 1×buffer16. After incubation at room temperature for 10 minutes, the RNP mixture were diluted to various concentration ranging from […] to 0.6 nM and 4 nM cy5-labeled oligonucleotides was added. Binding reactions were carried out at 55° C. for 30 minutes. Samples were resolved on 4% native TBE-PAGE for oligonucleotides. […]

In data set [4] the target is T2, dAtCas9. Description: EMSA; SD 7.1; second measurement, mutated PAM TATA. Conditions: tags: 6xHis; label: 5' Cy5.
Source text: as §1, §2

For data set [5], the target named is T2, dAtCas9. Description: EMSA; SD 4.5; mutated PAM TATA; buffer16, 55C. Conditions: tags: 6xHis; label: 5' Cy5. As to the method: as §3, §4
Data set [6] has as its target T1, dAtCas9-D1089A. The data set is described as follows: EMSA; SD 13.6; PAM TATA. Conditions: tags: 6xHis; label: 5' Cy5.
Source text: as §1, §2

For data set [7], the target named is T2, dAtCas9. Description: EMSA; SD 12.2; mutated PAM TATA with 1-2 bulge. Conditions: tags: 6xHis; label: 5' Cy5; 2-base bulge at PAM-proximal positions 1-2. As to the method:
as §3, §4

The target in data set [8] is T2, dAtCas9. Description: EMSA; PAM CTAA. The conditions noted are these: tags: 6xHis; label: Cy5; NcoI-linearized plasmid. As to the method: as §3, §4

B1: 21a sgRNA-At full length ; 50 bp 21a WT PAM (CTAA) (ssRNA ; dsDNA)
RNA: AAAUGCCUUCGAUUUUACCCCAACGAAUAAGUCAUAGUUCCCUCACAAGCCUCGAUGUGGUAUGAUGAAAAUCAUACCACAUCAAGGCUUGCGAGGUUGCUAUGAUAAGGCAACAGGCCGCAAAGCACUGACCCGCAUUCCAAUGAAUGCGGGUCAUCUACUUUUU
DNA 1: AAATGCCTTCGATTTTACCCCAACGAATAACAGGCTAAAATATGGACCTG
DNA 2: CAGGTCCATATTTTAGCCTGTTATTCGTTGGGGTAAAATCGAAGGCATTT
Regarding B1, the figures for the dissociation constant Kd with dAtCas9-D1089A [1], with dAtCas9 [2] and in the data set with dAtCas9 [3] were 44.4 nM, 26.2 nM and 22.4 nM, respectively.

B2: 21a sgRNA-At full length ; 50 bp 21a mutated PAM (TATA), 0 bulge (ssRNA ; dsDNA)
RNA: B1 RNA
DNA 1: AAATGCCTTCGATTTTACCCCAACGAATAAGTCATATAAATATGGACCTG
DNA 2: CAGGTCCATATTTATATGACTTATTCGTTGGGGTAAAATCGAAGGCATTT
As to B2, the results for the dissociation constant Kd with dAtCas9 [4], with dAtCas9 [5] and with dAtCas9-D1089A [6] were 109 nM, 248 nM and 27.1 nM, respectively.

B3: 21a sgRNA-At full length ; 50 bp 21a mutated PAM, 1-2 bulge (ssRNA ; dsDNA)
RNA: B1 RNA
DNA 1: B2 DNA 1 with A29T, A30T
DNA 2: B2 DNA 2
B3 gave a dissociation constant (Kd) in the data set with dAtCas9 [7] of 29.5 nM.

B4: 27m sgRNA-At ; 27m WT PAM (CTAA) mini plasmid, linear (ssRNA ; dsDNA)
RNA: GAAGAUCCUUUGAUCUUUUCUACGGGUCAUAGUUCCCUCACAAGCCUCGAUGUGGUAUGAUGAAAAUCAUACCACAUCAAGGCUUGCGAGGUUGCUAUGAUAAGGCAACAGGCCGCAAAGCACUGACCCGCAUUCCAAUGAAUGCGGGUCAUCUACUUUUU
DNA 1: GAAGATCCTTTGATCTTTTCTACGGGGTCCTAA
DNA 2: TTAGGACCCCGTAGAAAAGATCAAAGGATCTTC
With B4, the binding result in the data set with dAtCas9 [8] was “binds”.
